Source: US20150276766A1

Target: T1, recombinant GDF11 (UniProt O95390)
T1 sequence (looked up): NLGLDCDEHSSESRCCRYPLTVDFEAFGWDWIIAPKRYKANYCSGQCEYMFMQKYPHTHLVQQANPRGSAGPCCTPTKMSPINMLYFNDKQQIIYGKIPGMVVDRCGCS
Assay: sandwich ELISA, plates coated with mActRIIA-Fc, detected with anti-GDF8/11 antibodies

mActRIIA-Fc (extracellular domain of murine ActRIIA fused to a murine Fc domain; the murine counterpart of SEQ ID NO:7) (from UniProt P27038 21-135) (Fc fusion)
lowest concentration detected in ELISA: 100 pg/mL
